The values below are quoted from earlier work in PMC5934386.

Data set [1] concerns the target Ubiquitin (Homo sapiens) (UniProt P0CG47).
Data set [2] has the same target. The experiment in a line: NMR.

pKd: −log10 of the molar value. Where two headings read alike, the source gives them in different places.

E2-25K UBA, sequence (P61086 157-200): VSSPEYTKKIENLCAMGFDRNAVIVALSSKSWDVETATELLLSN
yeast E2-25K, sequence (P21734 whole entry): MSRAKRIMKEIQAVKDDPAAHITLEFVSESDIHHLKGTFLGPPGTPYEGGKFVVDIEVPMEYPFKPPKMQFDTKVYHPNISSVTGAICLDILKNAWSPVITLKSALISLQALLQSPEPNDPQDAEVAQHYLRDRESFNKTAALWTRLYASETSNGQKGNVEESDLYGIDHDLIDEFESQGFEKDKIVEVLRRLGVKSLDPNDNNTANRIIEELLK

Usually pKd stands for the negative decadic logarithm of the Kd, by convention in mol/L. As for E2-25K UBA (from UniProt P61086), the pKd in the data set with Ubiquitin (Homo sapiens) [1] was 2.92.

yeast E2-25K (from UniProt P21734): the pKd with Ubiquitin (Homo sapiens) [2] is 3.64.
